The data set deals with the molecule itself. In words: cryo-EM structure.

B1: N-terminal IST1 R16E/K27E mutant (IST1NTD^R16E/K27E) (domain or fragment, human, UniProt P53990 1-189, looked up)
chain: MLGSGFKAERLRVNLELVINRLKLLEEKKTELAQKARKEIADYLAAGKDERARIRVEHIIREDYLVEAMEILELYCDLLLARFGLIQSMKELDSGLAESVSTLIWAAPRLQSEVAELKIVADQLCAKYSKEYGKLCRTNQIGTVNDRLMHKLSVEAPPKILVERYLIEIAKNYNVPYEPDSVVMAEAPP
As for B1, the binding result is given as “binds”.

The values above are taken from paper PMC7343221 (Nature structural & molecular biology, 2020).
